The results in this text go back to doi:10.1101/2024.05.17.594671, “Mechanism of TAX1BP1 recruitment in aggrephagy to switch from cargo collection to sequestration” (bioRxiv, 2024).

Details in all cases: both partners purified
Test [1] deals with T1, GFP-NBR1 (recombinant, purified) (UniProt Q14596 1-966).
T1 construct: NBR1; source: HEK293 (pCAGGSsH-C vector, VBCF ProTech facility), purified as described previously; not shown: GFP, N-terminal, kept
T1 sequence (looked up): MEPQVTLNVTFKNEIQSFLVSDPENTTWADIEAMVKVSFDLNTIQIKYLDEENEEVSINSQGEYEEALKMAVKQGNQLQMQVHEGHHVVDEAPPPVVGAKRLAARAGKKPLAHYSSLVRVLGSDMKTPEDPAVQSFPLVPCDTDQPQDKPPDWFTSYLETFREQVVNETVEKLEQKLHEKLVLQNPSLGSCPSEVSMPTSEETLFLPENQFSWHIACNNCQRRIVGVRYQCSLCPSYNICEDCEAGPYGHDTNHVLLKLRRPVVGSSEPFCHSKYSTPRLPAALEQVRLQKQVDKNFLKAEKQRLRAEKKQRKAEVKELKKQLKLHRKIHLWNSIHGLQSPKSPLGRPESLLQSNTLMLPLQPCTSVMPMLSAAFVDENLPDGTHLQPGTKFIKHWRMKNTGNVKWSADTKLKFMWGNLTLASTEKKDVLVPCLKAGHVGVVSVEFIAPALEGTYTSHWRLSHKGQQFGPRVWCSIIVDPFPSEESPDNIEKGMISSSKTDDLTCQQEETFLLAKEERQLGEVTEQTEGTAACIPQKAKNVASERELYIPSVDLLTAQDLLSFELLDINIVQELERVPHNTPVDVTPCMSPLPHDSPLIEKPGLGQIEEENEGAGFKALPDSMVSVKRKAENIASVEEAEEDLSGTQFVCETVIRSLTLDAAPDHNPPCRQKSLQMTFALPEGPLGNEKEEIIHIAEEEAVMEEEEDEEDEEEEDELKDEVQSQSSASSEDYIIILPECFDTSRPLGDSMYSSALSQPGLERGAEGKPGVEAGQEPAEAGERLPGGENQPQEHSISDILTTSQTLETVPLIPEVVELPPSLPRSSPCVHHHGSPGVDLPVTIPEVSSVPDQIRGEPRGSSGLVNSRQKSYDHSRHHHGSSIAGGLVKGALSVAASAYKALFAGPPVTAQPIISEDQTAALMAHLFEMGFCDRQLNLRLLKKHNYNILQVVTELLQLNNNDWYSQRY
Description: microscopy-based protein-protein interaction assay (beads); 2.5 µM GST-TAX1BP1 (FL, domain, truncations, point mutants) as bait on GST beads; 1 µM GFP-NBR1 as prey; 25 mM HEPES pH 7.5, 150 mM NaCl, 1 mM DTT; 15-30 min at RT; confocal imaging.

Test [2] deals with T2, NBR1 (untagged, recombinant) (UniProt Q14596 1-966).
T2 construct: NBR1; source: HEK293 (pCAGGSsH-C vector, VBCF ProTech facility), purified as described previously
T2 sequence (looked up): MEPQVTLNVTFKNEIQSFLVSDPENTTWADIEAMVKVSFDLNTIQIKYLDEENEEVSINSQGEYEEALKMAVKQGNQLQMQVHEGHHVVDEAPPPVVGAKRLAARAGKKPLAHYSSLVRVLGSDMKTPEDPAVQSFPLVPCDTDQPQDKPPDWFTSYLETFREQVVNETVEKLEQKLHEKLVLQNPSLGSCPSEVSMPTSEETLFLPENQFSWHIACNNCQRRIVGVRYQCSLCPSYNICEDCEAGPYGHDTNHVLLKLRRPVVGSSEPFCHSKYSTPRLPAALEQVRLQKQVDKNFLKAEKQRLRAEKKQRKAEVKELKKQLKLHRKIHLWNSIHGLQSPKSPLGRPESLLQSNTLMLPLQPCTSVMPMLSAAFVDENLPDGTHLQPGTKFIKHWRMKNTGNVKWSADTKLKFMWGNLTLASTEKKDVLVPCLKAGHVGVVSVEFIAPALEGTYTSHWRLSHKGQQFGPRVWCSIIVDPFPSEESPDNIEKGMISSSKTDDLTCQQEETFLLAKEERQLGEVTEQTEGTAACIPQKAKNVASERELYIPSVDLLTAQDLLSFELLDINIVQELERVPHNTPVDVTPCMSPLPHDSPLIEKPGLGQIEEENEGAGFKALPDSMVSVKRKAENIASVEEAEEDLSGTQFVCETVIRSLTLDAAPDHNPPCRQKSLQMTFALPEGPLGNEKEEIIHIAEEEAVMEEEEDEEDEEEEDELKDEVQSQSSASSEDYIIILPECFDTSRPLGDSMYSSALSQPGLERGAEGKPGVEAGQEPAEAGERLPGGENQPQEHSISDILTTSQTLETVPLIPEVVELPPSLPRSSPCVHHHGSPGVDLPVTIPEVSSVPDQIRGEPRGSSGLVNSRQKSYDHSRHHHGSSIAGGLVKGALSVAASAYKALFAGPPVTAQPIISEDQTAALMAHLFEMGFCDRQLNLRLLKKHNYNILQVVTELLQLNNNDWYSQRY
Description: in vitro condensation assay (recruitment to p62 condensates, microscopy); 2 µM mCherry-p62 S403E, 1 µM NBR1 (or without NBR1), 2 µM GFP-TAX1BP1 (FL, ΔN or ΔZnF; N domain) in 25 mM HEPES pH 7.5, 150 mM NaCl, 1 mM DTT; condensation triggered with 5 µM GST-4xUB; spinning disk microscopy.

Test [3] has as its target T3, 10x-His-mCherry-TAX1BP1 (full length, FL) (UniProt Q86VP1 1-789).
T3 construct: TAX1BP1, full length (FL); also called mCh-TAX1BP1; mCherry-TAX1BP1 FL; source: Sf9 insect cells (pLIB vector, baculovirus), purified as described previously; not shown: mCherry, N-terminal, kept
Description: microscopy-based protein-protein interaction assay (beads); mCherry-TAX1BP1 FL or ΔN on RFP-trap beads; GFP tagged NBR1 fragment CC2-LIR1 as prey.

T3 sequence (Q86VP1 whole entry): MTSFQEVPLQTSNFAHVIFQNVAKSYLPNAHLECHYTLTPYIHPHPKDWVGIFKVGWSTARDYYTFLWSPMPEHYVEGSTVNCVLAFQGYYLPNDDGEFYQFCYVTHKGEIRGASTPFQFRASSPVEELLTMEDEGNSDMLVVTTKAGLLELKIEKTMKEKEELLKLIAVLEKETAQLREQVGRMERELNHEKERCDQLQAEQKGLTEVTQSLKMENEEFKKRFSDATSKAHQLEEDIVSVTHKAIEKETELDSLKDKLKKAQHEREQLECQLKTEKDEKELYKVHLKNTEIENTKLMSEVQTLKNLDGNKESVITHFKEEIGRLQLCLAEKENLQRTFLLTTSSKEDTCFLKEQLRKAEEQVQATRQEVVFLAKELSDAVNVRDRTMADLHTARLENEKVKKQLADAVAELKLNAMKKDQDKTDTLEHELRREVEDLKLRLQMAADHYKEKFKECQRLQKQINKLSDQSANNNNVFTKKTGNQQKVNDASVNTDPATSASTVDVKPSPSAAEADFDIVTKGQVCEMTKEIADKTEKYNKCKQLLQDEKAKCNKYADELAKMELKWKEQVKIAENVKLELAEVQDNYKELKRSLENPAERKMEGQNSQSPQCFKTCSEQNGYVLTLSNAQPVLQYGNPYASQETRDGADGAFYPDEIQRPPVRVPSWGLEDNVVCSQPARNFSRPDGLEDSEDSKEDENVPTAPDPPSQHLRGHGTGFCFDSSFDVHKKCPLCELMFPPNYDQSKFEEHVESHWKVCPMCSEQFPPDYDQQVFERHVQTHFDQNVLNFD

B1: GST-N domain (aa420-506 of TAX1BP1) (domain or fragment, UniProt Q86VP1 420-506, looked up)
chain: DQDKTDTLEHELRREVEDLKLRLQMAADHYKEKFKECQRLQKQINKLSDQSANNNNVFTKKTGNQQKVNDASVNTDPATSASTVDVK
Consider B1, for which, in test [1], the binding result is on record as “binds”.

B2: GFP-N-domain (aa420-506 of TAX1BP1) (domain or fragment, UniProt Q86VP1 420-506, looked up)
chain: DQDKTDTLEHELRREVEDLKLRLQMAADHYKEKFKECQRLQKQINKLSDQSANNNNVFTKKTGNQQKVNDASVNTDPATSASTVDVK
notes: TAX1BP1 N-domain, aa420-506; Cloned into pGEX-4T1; the methods name the purified protein GFP-N domain and give elution either by TEV cleavage or by glutathione; also called N-domain alone; isolated N-domain; source: E. coli Rosetta (pGEX-4T1), purified (GST beads, SEC); not shown: GFP, N-terminal, kept
On to B2, for which the binding result in test [2] is reported as “binds”.

B3: GFP-CC2-LIR1 (NBR1 aa685 - aa757) (domain or fragment, UniProt Q14596 685-757, looked up)
chain: LGNEKEEIIHIAEEEAVMEEEEDEEDEEEEDELKDEVQSQSSASSEDYIIILPECFDTSRPLGDSMYSSALSQ
notes: NBR1 fragment CC2-LIR1, aa685-757; The methods name the purified protein GST-GFP-CC2-LIR1 and give elution either by TEV cleavage or by glutathione; also called GST-GFP-CC2-LIR1; GFP tagged NBR1 fragment (CC2-LIR2); source: E. coli Rosetta (pGEX-4T1), purified (GST beads, SEC); not shown: GFP, N-terminal, kept
As to B3, the binding result in test [3] was “binds”.
